# Test results from publication PMC9695642, “Conservation of Importin α Function in Apicomplexans: Ivermectin and GW5074 Target Plasmodium falciparum Importin α and Inhibit Parasite Growth in Culture” (International Journal of Molecular Sciences, 2022).
# Legend:
# [1] = target: His-tagged GCN5-NLS-GFP (NLS of T. gondii histone acetyltransferase GCN5 fused to GFP) (Toxoplasma gondii); test: AlphaScreen or HTRF; biotinylated IMPαs titrated against His-tagged NLS-GFPs (30 nM); apparent dissociation constant
# [2] = target: His-tagged TGS1-NLS-GFP (NLS of P. falciparum trimethylguanosine synthase fused to GFP) (Plasmodium falciparum); test: as above
# [3] = target: His-tagged Toxoplasma gondii importin α (Toxoplasma gondii); test: AlphaScreen or HTRF; His-tagged IMPαs (30 nM) titrated with increasing concentrations of biotinylated GST-MmIMPβ1 (legend: 5 nM)
# [4] = target: His-tagged Mus musculus importin α (Mus musculus) (UniProt P52293); test: as above
substance,measurement,setting,value
"Toxoplasma gondii importin α, biotinylated GST fusion protein (natural protein)",Kd,[1],5 nM
same,Kd,[2],1.9 nM
biotinylated GST-MmIMPβ1 (Mus musculus importin β1) (from UniProt P70168 1-876),Kd,[3],1.2 nM
biotinylated GST-MmIMPβ1 (Mus musculus importin β1) (from UniProt P70168 1-876) (natural protein),Kd,[4],2.5 nM
mammalian IMPα/β1 heterodimer from M. musculus (from UniProt P52293 1-529; P70168 1-876) (complex),Kd,[1],3.2 nM
same,Kd,[2],2.5 nM
